Measured values reported in the supplement of paper PMC7125110.
± gives the standard error. Fewer inactive variants are shown than the library holds.

B1: glmS ribozyme (parent)
chain: AUAAAAGCGCCAGAACUACAGAAAUGUAGUUGACGAGGAGGAGGUUUAUCGAAUUUUCGGCGGAUGCCUCCAAA

Assays:
Conditions in all cases: with glucosamine-6-phosphate
[1] = variants of: B1; test: self-cleavage kobs at 40 uM GlcN6P; higher = faster cleavage; RNA array
Procedure, shortened: (§1)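 A hybridised Cy3 probe tracked barcoded ribozyme variants, transcribed in situ by E. coli RNA polymerase on sequenced MiSeq chips, at 37 °C. The variants received 40 μM to 10 mM glucosamine-6-phosphate in HEPES/KCl/Mg(OAc)2 buffer. kobs came from decay fits and kcat and KM from weighted Michaelis–Menten fits.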

[2] = variants of: B1; test: self-cleavage kobs at 2500 uM GlcN6P; higher = faster cleavage; RNA array
Procedure, shortened: as §1

[3] = variants of: B1; test: self-cleavage kobs at 10000 uM GlcN6P; higher = faster cleavage; RNA array
Procedure, shortened: as §1

[4] = variants of: B1; test: self-cleavage kobs at 160 uM GlcN6P; higher = faster cleavage; RNA array
Procedure, shortened: as §1

[5] = variants of: B1; test: self-cleavage kobs at 640 uM GlcN6P; higher = faster cleavage; RNA array
Procedure, shortened: as §1

Variant	self-cleavage kobs at 40 uM GlcN6P [1]	self-cleavage kobs at 2500 uM GlcN6P [2]	self-cleavage kobs at 10000 uM GlcN6P [3]	self-cleavage kobs at 160 uM GlcN6P [4]	self-cleavage kobs at 640 uM GlcN6P [5]
C19A U31A	0.000156 ± 5.1e-05 s⁻¹	0.00209 ± 0.001 s⁻¹	0.00693 ± 0.0019 s⁻¹	–	–
G26U C70U	0.000967 ± 0.00041 s⁻¹	0.000552 ± 0.0002 s⁻¹	–	0.00126 ± 0.00046 s⁻¹	–
C16A U49C C71G	< 1e-05 s⁻¹	–	< 1e-05 s⁻¹	–	–
U30G A36G U54G	< 1e-05 s⁻¹	–	< 1e-05 s⁻¹	–	–
A15U C61G	< 1e-05 s⁻¹	–	< 1e-05 s⁻¹	–	–
C16G U69C	5.13e-05 ± 2e-05 s⁻¹	–	0.000195 ± 5.5e-05 s⁻¹	–	–
G29U U55G	4.62e-05 ± 1.1e-05 s⁻¹	0.00177 ± 0.00029 s⁻¹	0.00239 ± 0.0003 s⁻¹	–	0.000282 ± 5.3e-05 s⁻¹
G29A G35U C50U	< 1e-05 s⁻¹	–	< 1e-05 s⁻¹	–	–
C16U G63U G66A	< 1e-05 s⁻¹	–	< 1e-05 s⁻¹	–	–
C16G A39G G51U U55A	< 1e-05 s⁻¹	–	–	–	< 1e-05 s⁻¹
C16A U31C A42G G44U C70G	< 1e-05 s⁻¹	–	–	–	–
G29U C71U	0.000132 ± 1.2e-05 s⁻¹	0.00226 ± 0.00052 s⁻¹	0.00363 ± 0.00043 s⁻¹	0.000298 ± 2.9e-05 s⁻¹	0.000578 ± 0.0001 s⁻¹
G29U C71A	5.78e-05 ± 1.4e-05 s⁻¹	0.000288 ± 0.00011 s⁻¹	0.00103 ± 0.00015 s⁻¹	–	0.000172 ± 4.8e-05 s⁻¹
G29A U49A	< 1e-05 s⁻¹	–	–	< 1e-05 s⁻¹	< 1e-05 s⁻¹
C16G G51A	< 1e-05 s⁻¹	–	< 1e-05 s⁻¹	< 1e-05 s⁻¹	–
G29U A52U U65A	< 1e-05 s⁻¹	–	–	–	–
G29U G40C A52G	< 1e-05 s⁻¹	–	–	–	–
G29U C70U	0.000204 ± 2.4e-05 s⁻¹	0.00187 ± 0.00047 s⁻¹	0.00452 ± 0.00093 s⁻¹	0.000273 ± 4.2e-05 s⁻¹	0.000574 ± 7.2e-05 s⁻¹
C16U G35A	< 1e-05 s⁻¹	–	–	< 1e-05 s⁻¹	< 1e-05 s⁻¹
C16G U65C C71G	< 1e-05 s⁻¹	–	< 1e-05 s⁻¹	–	–
G29A U55C	0.000113 ± 2.5e-05 s⁻¹	0.00194 ± 0.00056 s⁻¹	0.00384 ± 0.00092 s⁻¹	9.66e-05 ± 2.7e-05 s⁻¹	0.00146 ± 0.00032 s⁻¹
C16G A33U	< 1e-05 s⁻¹	–	3.36e-05 ± 1e-05 s⁻¹	–	–
C16G A36G	< 1e-05 s⁻¹	–	< 1e-05 s⁻¹	< 1e-05 s⁻¹	< 1e-05 s⁻¹
C16G A36C	< 1e-05 s⁻¹	–	< 1e-05 s⁻¹	–	< 1e-05 s⁻¹
C16A G59C	< 1e-05 s⁻¹	–	–	–	< 1e-05 s⁻¹

Variant	self-cleavage kobs at 40 uM GlcN6P [1]	self-cleavage kobs at 2500 uM GlcN6P [2]	self-cleavage kobs at 10000 uM GlcN6P [3]	self-cleavage kobs at 160 uM GlcN6P [4]	self-cleavage kobs at 640 uM GlcN6P [5]
U30C G51C	< 1e-05 s⁻¹	–	< 1e-05 s⁻¹	–	–
G29U U30A U31G A53U	< 1e-05 s⁻¹	–	–	–	7.01e-05 ± 2.6e-05 s⁻¹
U30A A33U U56C	< 1e-05 s⁻¹	–	–	–	–
C16U A53C	0.000147 ± 2.2e-05 s⁻¹	0.00358 ± 0.00061 s⁻¹	0.00687 ± 0.0013 s⁻¹	0.000234 ± 6.4e-05 s⁻¹	0.00248 ± 0.00046 s⁻¹
G29U G60C C70A	< 1e-05 s⁻¹	–	–	–	–
G29C C58U C71U	< 1e-05 s⁻¹	–	5.59e-05 ± 1.7e-05 s⁻¹	–	–
G29C U49G C58A	< 1e-05 s⁻¹	–	–	–	–
U30C G43A U46A	< 1e-05 s⁻¹	–	–	–	–
G29A C71U	0.000141 ± 2e-05 s⁻¹	0.00526 ± 0.0012 s⁻¹	0.00436 ± 0.00077 s⁻¹	0.000261 ± 8.2e-05 s⁻¹	0.000549 ± 7.9e-05 s⁻¹
C16A G41C	< 1e-05 s⁻¹	–	–	< 1e-05 s⁻¹	< 1e-05 s⁻¹
G21U G40C	0.000253 ± 6.1e-05 s⁻¹	–	0.00248 ± 0.00053 s⁻¹	–	–
C16G G21U	0.00012 ± 5.7e-05 s⁻¹	–	–	–	–
G29U U47A U57G	< 1e-05 s⁻¹	–	–	–	–
G29U G37C A42U	< 1e-05 s⁻¹	< 1e-05 s⁻¹	–	–	< 1e-05 s⁻¹
U30C G35U G41A U47A U57A C61G G63C C70A	< 1e-05 s⁻¹	–	< 1e-05 s⁻¹	–	–
U30G A53G	0.000307 ± 5.3e-05 s⁻¹	0.00534 ± 0.00076 s⁻¹	0.0151 ± 0.0037 s⁻¹	0.00064 ± 0.00013 s⁻¹	0.00172 ± 0.0004 s⁻¹
A28C C34A G62C	< 1e-05 s⁻¹	–	< 1e-05 s⁻¹	–	–
C16A G29C G37U	< 1e-05 s⁻¹	< 1e-05 s⁻¹	–	–	–
U30A G37C U65C	< 1e-05 s⁻¹	< 1e-05 s⁻¹	–	–	–
G29U A36C A39C	< 1e-05 s⁻¹	–	< 1e-05 s⁻¹	–	–
C16U C50G G59A C68A	4.62e-05 ± 2.3e-05 s⁻¹	–	4.07e-05 ± 1.3e-05 s⁻¹	–	–
G29U G44A	< 1e-05 s⁻¹	–	3.45e-05 ± 9.6e-06 s⁻¹	< 1e-05 s⁻¹	–
C16U G37A	7.36e-05 ± 1.1e-05 s⁻¹	0.00123 ± 0.00015 s⁻¹	0.00262 ± 0.00044 s⁻¹	0.000108 ± 1.3e-05 s⁻¹	0.000713 ± 7.9e-05 s⁻¹
G29U U31C C50G	6.96e-05 ± 3.2e-05 s⁻¹	–	5.39e-05 ± 2.3e-05 s⁻¹	–	–
